Consider 9 molecules from patent publication US20230331848A1 (BIOSION, published 2023).

The target of experiment [1] is T1, cynomolgus PD-1-his protein (Cat#:PD1-05223, Acro biosystems Inc.) (cynomolgus, UniProt B0LAJ3 25-170).
T1 construct: Bought protein used in Biacore and indirect ELISA; also called monkey PD-1; Cyno PD-1
The experiment in a line: indirect ELISA on coated cynomolgus PD-1-his. (ELISA stands for enzyme-linked immunosorbent assay.)

Experiment [2] deals with T2, in house made human PD-1-Fc protein (human, biotin-labeled (sites not given)).
T2 construct: also called biotin-labeled human PD-1-Fc
Nature of the experiment: competitive ELISA: biotin human PD-1-Fc + antibody on coated human PD-L1-Fc (competitor). The procedure:
Briefly, 100 μl human PD-L1-Fc protein (prepared in-house with SEQ ID NO: 28) at 2 μg/mL in carbonate/bicarbonate buffer (pH 9.6) was coated on 96-well micro plates overnight at 4° C., Plates were washed with wash buffer (PBS+0.05% w/v Tween-20, PBST), and blocked with 5% w/v non-fatty milk in PBST for 2 hours at 37° C. […] After incubation at 37° C. for 40 minutes, plates were washed using wash buffer. […] Plates were washed again using wash buffer. Finally, TMB was added and the reaction was stopped using 1M H₂SO₄. The absorbance was read on a microplate reader using dual wavelength mode with 450 nm for TMB and 630 nm as the reference wavelength, then the OD (450-630) values were plotted against antibody concentrations. Data was analyzed using Graphpad Prism software and IC₅₀ values were reported.

Experiment [3] addresses T3, human PD-1-his protein prepared in-house (human, UniProt Q15116 25-167, biotin-labeled (sites not given)).
T3 construct: also called biotin labeled human PD-1-his
The experiment in a line: capture ELISA, antibody captured, biotin human PD-1-his detected. On the procedure: Briefly, 96-well micro plates were coated with 100 μl 2 μg/ml AffiniPure Goat Anti-Mouse IgG F(ab′)₂ fragment specific (Cat#:115-005-072, Jackson lmmunoResearch) or Goat-anti-human IgG (Cat#:109-005-097, Jackson ImmunoResearch, for the positive control and negative control) in PBS overnight at 4° C. Plates were washed once with wash buffer (PBST, PBS+0.05% Tween-20) and then blocked with 200 μl/well blocking buffer (5% w/v non-fatty milk in PBST) for 2 hours at 37° C. […] After a final wash, plates were incubated with 100 μl/well TMB (Cat#:TMB-S-002, Innoreagents) at room temperature.
For the capture ELISA, 96-well plates were coated with 100 μl 2 μg/ml AffiniPure Goat Anti-Human IgG, Fcγ fragment specific (Cat#:109-005-098, Jackson Immunoresearch) instead of AffiniPure goat-anti-mouse IgG F(ab′)₂ fragment specific.

Experiment [4] addresses T3, human PD-1-his protein prepared in-house. Nature of the experiment: competitive ELISA: biotin human PD-1-his + antibody on coated Pembrolizumab (competitor). The procedure:
ELISA plates were washed once with wash buffer (PBST, PBS+0.05% Tween-20) and then blocked with 200 μl/well blocking buffer (5% w/v non-fatty milk in PBST) for 2 hours at 37° C. […] After incubation at 37° C. for 40 minutes, plates were washed using wash buffer, added and incubated with 100 μl/well Peroxidase Streptavidin for 40 minutes at 37° C. Plates were washed again using wash buffer. Finally, TMB was added and the reaction was stopped using 1M H₂SO₄. The absorbance was read on a microplate reader using dual wavelength mode with 450 nm for TMB and 630 nm as the reference wavelength, and the OD (450-630) values were plotted against antibody concentrations. Data was analyzed using Graphpad Prism software and IC₅₀ values were reported.

Experiment [5] addresses T4, human PD-1-his protein (Cat#:PD1-H5221, Acro biosystems Inc.) (human, UniProt Q15116 25-167).
T4 construct: not shown: his tag
The experiment in a line: BLI (Octet RED96), supernatant antibody captured on AHC sensor, human PD-1-his in solution, 1:1 fit. On the procedure: Briefly, AHC biosensors (anti-human IgG Fe capture, from ForteBio) were presoaked with 10 mM glycine (pH 1.5) for 3 seconds, and then dipped in a well with running buffer (0.5% w/v BSA in PBST) for 3 seconds, the soaking and dipping steps were repeated for three times. […] A new baseline was run for 100 seconds in another well with running buffer. Then the sensors were dipped in a well with serially diluted human PD-1-his protein (Cat#:PD1-H5221, Acro biosystems Inc., starting at 100 nM with a two-fold serial dilution) in running buffer for 120 seconds, and then immersed in a baseline well for […]. Finally, sensors were presoaked with 10 mM glycine (pH 1.5) for 30 seconds, and then were dipped in a well with running buffer for 30 seconds. The association and dissociation curves were fit to a 1:1 Langmuir binding model using ForteBio Data Analysis 8.1 evaluation software.
(BLI is a label-free optical method that tracks binding on a fibre tip over time.)

For experiment [6], the target named is T5, human PD-1 expressed on GS-J2/PD-1 cells (Genscript) (human, UniProt Q15116 25-288). Nature of the experiment: cell-based or functional assay.
The target in experiment [7] is T2, in house made human PD-1-Fc protein. The experiment in a line: blocking FACS: biotin human PD-1-Fc + antibody on GS-C2/PD-L1 cells (competitor: cell-surface human PD-L1). The procedure:
GS-C2/PDL1 cells were harvested from cell culture flasks at the log phase, washed twice and re-suspended in PBS containing 2% v/v Fetal Bovine Serum (FACS buffer). GS-C2/PD-L1 cells, 0.6×10⁵ cells per welt, were incubated in 96 well-plates with 100 the antibody/PD1-Fc mixture for 40 minutes at 4° C. Cells were washed twice with FACS buffer, added with 100 R-Phycoerythrin Streptavidin (1:500 dilution in FACS buffer, Cat#:016-110-084, Jackson Immunoresearch), and incubated for 40 minutes at 4° C. in dark. Cells were washed twice and re-suspended in FACS buffer. Fluorescence was measured using a Becton Dickinson FACS Canto II-HTS equipment. Data was analyzed using Graphpad Prism software and IC₅₀ values were reported.

Experiment [8] concerns the target T5, human PD-1 expressed on GS-J2/PD-1 …. The experiment in a line: flow cytometry on GS-J2/PD-1 cells. On the procedure: In specific, the 293F-mouse PD-1 cells and GS-J2/PD-1 cells were respectively harvested from cell culture flasks, washed twice and re-suspended in PBS containing 2% v/v Fetal Bovine Serum (FACS buffer). Then, 2×10⁵ cells per well were incubated in 96 well-plates with 100 μl of the anti-PD1 antibodies or controls at various concentrations for 40 minutes on ice. […] Following an incubation of 40 minutes at 4° C. in dark, cells were washed three times and re-suspended in FACS buffer. Fluorescence was measured using a Becton Dickinson FACS Canto II-HTS equipment and plotted against antibody concentrations. Data was analyzed using GraphPad Prism software and EC₅₀ values were reported.
For the cell-based binding FACS, R-Phycoerythrin AffiniPure Goat Anti-human IgG Fcγ fragment specific (Cat#:109-115-098, Jackson ImmunoResearch) was used for the humanized antibodies, with 1:1000 dilution in FACS buffer, 100 μl/well.
On the technique in general: In flow cytometry, cells or beads pass a laser one at a time.

B1: humanized antibody huE1A9C8A7-V5 (antibody, human IgG4 S228P, kappa)
heavy: not shown
light: DIVMTQTPLSLPVTPGEPASISCRSSQSIVHSNGNTYLEWYLQKPGQSPQLLIYKVSNRFSGVPDRFSGSGSGTDFTLKISRVEAEDVGVYYCFQGSHVPYTFGGGTKVEIKRTVAAPSVFIFPPSDEQLKSGTASVVCLLNNFYPREAKVQWKVDNALQSGNSQESVTEQDSKDSTYSLSSTLTLSKADYEKHKVYACEVTHQGLSSPVTKSFNRGEC
notes: Human IgG4/kappa
What is called EC50 is the concentration needed to bring the measured effect to its halfway point. High values mean weaker potency, low ones greater potency. What is called IC50 is the midpoint of a concentration-inhibition curve. One may read the Kd as the equilibrium constant for the complex coming apart. As usually defined, the koff is the rate constant with which the complex falls apart. For orientation: kon means the rate constant with which the complex forms. For B1, the figures for the EC50 in experiment [1], in experiment [3] and in experiment [8] were 0.9 nM, 0.21 nM and 0.66 nM, respectively. The IC50 in experiment [2] was determined as 0.35 nM; in experiment [4] it was 0.54 nM; in experiment [7], 0.54 nM. The molecule also yielded a Kd in experiment [5] of 1.01 nM. Further, the koff in experiment [5] stood at 0.000213 s⁻¹. The same molecule showed a kon in experiment [5] of 211000 M⁻¹ s⁻¹. Also, the “Cell-based functional assay (EC50, nM)” value in experiment [6] worked out at 9.3 nM.

B2: humanized antibody huE1A9C8A7-V1 (antibody, human IgG4 S228P, kappa, V domains shown)
VH: QVQLVQSGAEVVKPGASVKISCKASGYTFSDYVMHWMRQAPGQSLEWIGVISTYHIPAVYNQKFKGKATMTVDKSTSTVYLELSSLRSEDTAVYYCAREVYGDSYYFDVWGQGTTVTVSS
VL: DIVMTQTPLSLPVTPGEPASISCRSSQSIVHSNGNTYLEWYLQKPGQSPQLLIYKVSNRFSGVPDRFSGSGSGTDFTLKISRVEAEDVGVYYCFQGSHVPYTFGGGTKVEIKR
notes: Human IgG4/kappa
In experiment [5], B2 displayed a Kd of 1.54 nM, a koff of 0.000317 s⁻¹ and a kon of 206000 M⁻¹ s⁻¹.

B3: humanized antibody huE1A9C8A7-V11 (antibody, human IgG4 S228P, kappa, V domains shown)
VH: QVQLVQSGAEVVKPGASVKISCKASGYTFTDYVMHWVRQAPGQSLEWIGVISTYHIPAVYNQKFKGKATMTRDTSTSTVYLELSSLRSEDTAVYYCAREVYGDSYYFDVWGQGTTVTVSS
VL: DIVMTQTPLSLPVTPGEPASISCRSSQSIVHSNGNTYLEWYLQKPGQSPQLLIYKVSNRFSGVPDRFSGSGSGTDFTLKISRVEAEDVGVYYCFQGSHVPYTFGGGTKVEIKR
notes: Human IgG4/kappa
On to B3, for which, in experiment [5], the Kd is 1.53 nM, the koff was 0.000296 s⁻¹ and the kon amounted to 194000 M⁻¹ s⁻¹.

B4: humanized antibody huE1A9C8A7-V10 (antibody, human IgG4 S228P, kappa, V domains shown)
VH: QVQLVQSGAEVVKPGASVKISCKASGYTFTDYVMHWVRQAPGQSLEWIGVISTYHIPAVYNQKFKGKVTMTVDTSTSTVYLELSSLRSEDTAVYYCAREVYGDSYYFDVWGQGTTVTVSS
VL: DIVMTQTPLSLPVTPGEPASISCRSSQSIVHSNGNTYLEWYLQKPGQSPQLLIYKVSNRFSGVPDRFSGSGSGTDFTLKISRVEAEDVGVYYCFQGSHVPYTFGGGTKVEIKR
notes: Human IgG4/kappa
Take B4: in experiment [5], the Kd is 1.59 nM, the koff is 0.000385 s⁻¹ and the kon was 242000 M⁻¹ s⁻¹.

B5: humanized antibody huE1A9C8A7-V2 (antibody, human IgG4 S228P, kappa, V domains shown)
VH: QVQLVQSGAEVVKPGASVKISCKASGYTFTDYVMHWMRQAPGQSLEWIGVISTYHIPAVYNQKFKGKATMTVDKSTSTVYLELSSLRSEDTAVYYCAREVYGDSYYFDVWGQGTTVTVSS
VL: DIVMTQTPLSLPVTPGEPASISCRSSQSIVHSNGNTYLEWYLQKPGQSPQLLIYKVSNRFSGVPDRFSGSGSGTDFTLKISRVEAEDVGVYYCFQGSHVPYTFGGGTKVEIKR
notes: Human IgG4/kappa
For the molecule B5, in experiment [5], the affinity, expressed as Kd, was 1.49 nM; the koff came to 0.000294 s⁻¹; the kon amounted to 197000 M⁻¹ s⁻¹.

B6: humanized antibody huE1A9C8A7-V9 (antibody, human IgG4 S228P, kappa, V domains shown)
VH: QVQLVQSGAEVVKPGASVKISCKASGYTFTDYVMHWVRQAPGQSLEWIGVISTYHIPAVYNQKFKGRATMTVDTSTSTVYLELSSLRSEDTAVYYCAREVYGDSYYFDVWGQGTTVTVSS
VL: DIVMTQTPLSLPVTPGEPASISCRSSQSIVHSNGNTYLEWYLQKPGQSPQLLIYKVSNRFSGVPDRFSGSGSGTDFTLKISRVEAEDVGVYYCFQGSHVPYTFGGGTKVEIKR
notes: Human IgG4/kappa
On to B6, for which, in experiment [5], the Kd came out at 1.63 nM, the koff turned out to be 0.000413 s⁻¹ and the kon was 253000 M⁻¹ s⁻¹.

B7: humanized antibody huE1A9C8A7-V6 (antibody, human IgG4 S228P, kappa)
heavy: not shown
light: DIVMTQTPLSLPVTPGEPASISCRSSQSIVHSNGNTYLEWYLQKPGQSPQLLIYKVSNRFSGVPDRFSGSGSGTDFTLKISRVEAEDVGVYYCFQGSHVPYTFGGGTKVEIKRTVAAPSVFIFPPSDEQLKSGTASVVCLLNNFYPREAKVQWKVDNALQSGNSQESVTEQDSKDSTYSLSSTLTLSKADYEKHKVYACEVTHQGLSSPVTKSFNRGEC
notes: Human IgG4/kappa
Regarding B7, in experiment [5], the equilibrium dissociation constant (Kd) came to 1.84 nM, the off-rate constant (koff) came to 0.000428 s⁻¹ and the kon turned out to be 233000 M⁻¹ s⁻¹.

B8: humanized antibody huE1A9C8A7-V4 (antibody, human IgG4 S228P, kappa, V domains shown)
VH: QVQLVQSGAEVVKPGASVKISCKASGYTFSDYVMHWMRQAPGQSLEWIGVISTYHIPAVYNQKFKGKATMTVDTSTSTVYLELSSLRSEDTAVYYCAREVYGDSYYFDVWGQGTTVTVSS
VL: DIVMTQTPLSLPVTPGEPASISCRSSQSIVHSNGNTYLEWYLQKPGQSPQLLIYKVSNRFSGVPDRFSGSGSGTDFTLKISRVEAEDVGVYYCFQGSHVPYTFGGGTKVEIKR
notes: Human IgG4/kappa
With B8, in experiment [5], binding was put at a Kd of 1.49 nM, the koff is 0.00027 s⁻¹ and the on-rate constant (kon) was determined as 182000 M⁻¹ s⁻¹.

B9: humanized antibody huE1A9C8A7-V7 (antibody, human IgG4 S228P, kappa, V domains shown)
VH: QVQLVQSGAEVVKPGASVKISCKASGYTFTDYVMHWVRQAPGQGLEWIGVISTYHIPAVYNQKFKGKATMTVDTSTSTVYLELSSLRSEDTAVYYCAREVYGDSYYFDVWGQGTTVTVSS
VL: DIVMTQTPLSLPVTPGEPASISCRSSQSIVHSNGNTYLEWYLQKPGQSPQLLIYKVSNRFSGVPDRFSGSGSGTDFTLKISRVEAEDVGVYYCFQGSHVPYTFGGGTKVEIKR
notes: Human IgG4/kappa
In experiment [5], B9 returned a Kd of 1.5 nM, a koff of 0.000356 s⁻¹ and a kon of 237000 M⁻¹ s⁻¹.
